{
  "source": "patent EP1657250A1",
  "about": "“HLA-A *01-binding T-cell epitope of WT1” (Charité - Universitätsmedizin Berlin, priority 2004, dated 2006)",
  "key": {"constitutive proteasome": {"target": "T1, constitutive proteasome (Homo sapiens, UniProt P28072+P28074+Q99436)", "T1 construct": "Proteasomes were isolated from the EBV-transformed B-cell line; endogenous in cells; host or cells: LCL-721.174 (EBV-transformed B-cell line)", "experiment": "In vitro proteasome digestion of the precursor peptide, constitutive proteasome", "type": "biochemical", "conditions": "6 h incubation; Edman sequencing and MALDI-TOF", "experimental": "(§1) Purification of 20S proteasomes, in vitro degradation of WT1.314-336 (SEQ ID NO: 6), and separation and analysis of cleavage products were performed as described (16). 10 nmol (27.6 µg) of WT1.314-336 were incubated for 6 h with 2 µg immunoproteasome or with 2 µg of constitutive proteasome, respectively, in digestion buffer (20 mM Tris-HCI; pH 7.6; 10 mM NaCl; 10 mM KCI; 2 mM MgCl2; 0.5 mM DTT) and the reaction stopped by freezing the reaction mixture at -80°C.\n(§2) One crucial prerequisite for a peptide to be presented as a T-cell epitope is its proper excision from the protein. We analyzed in vitro digestion of the […] WT1-derived peptide 314-336 (SEQ ID NO: 6) encompassing the WT1.317-327 epitope […] (SEQ ID NO: 1) by constitutive as well as immunoproteasomes (Fig. 2). Proteasomes were isolated from the EBV-transformed B-cell line LCL-721.174 (constitutive proteasome) and the parental cell line LCL-721 (immunoproteasome, ref. 16) and were used for digestion with a 6-hour incubation period. A combination of Edman sequencing and MALDI-TOF mass spectrometry was subsequently performed to determine the identity and quantity of peptides generated after proteasome digestion. The amount of fragments detected is indicated."}, "immunoproteasome": {"target": "T2, immunoproteasome (Homo sapiens, UniProt P28062+P28065+P40306)", "T2 construct": "Proteasomes were isolated from the EBV-transformed B-cell line; endogenous in cells; host or cells: LCL-721 (EBV-transformed B-cell line)", "experiment": "In vitro proteasome digestion of the precursor peptide, immunoproteasome", "type": "biochemical", "conditions": "6 h incubation; Edman sequencing and MALDI-TOF", "experimental": "as §1, §2"}},
  "note": "“Also recorded” adds a separate entry of the source.",
  "data": [
    {"substance": "WT1.314-336: WT1-derived precursor peptide 314-336 encompassing the WT1.317-327 epitope (ASETSEKRPFMCAYPGCNKRYFK)", "values": [
      {"measurement": "cleavage site C-terminal to Tyr-327 (fragments detected)", "setting": "constitutive proteasome", "result": "fragment 328-336 was efficiently generated"},
      {"measurement": "processing of the N-terminus Thr-317", "setting": "constitutive proteasome", "result": "a fragment was found sharing the N-terminus Thr-317 (T)"},
      {"measurement": "generation of C-terminal residue Tyr-327 (fragments detected)", "setting": "immunoproteasome", "result": "generated as the major fragment (314-327); also recorded: complementary fragment 328-336 represented the other major fragment"},
      {"measurement": "processing of the N-terminus", "setting": "immunoproteasome", "result": "No processing of the N-terminus was observed"}
    ]}
  ]
}
